{
  "source": "patent US7662583B2",
  "about": "“Bioreactor containing cells expressing glycosyltransferase nucleic acids isolatable from Arabidopsis” (The University of York, priority 2003, dated 2010)",
  "experiment": "UGT enzyme reaction with quercetin (recombinant UGTs, HPLC)",
  "type": "biochemical, Arabidopsis",
  "conditions": "0.5 mM quercetin, 5 mM UDP-glucose, 30° C.; for Specific activity (nkat/mg protein) 3-O-glc: quercetin glucosylated at 3-OH; for Specific activity (nkat/mg protein) 3′-O-glc: quercetin glucosylated at 3′-OH; for Specific activity (nkat/mg protein) 4′-O-glc: quercetin glucosylated at 4′-OH; for Specific activity (nkat/mg protein) 7-O-glc: quercetin glucosylated at 7-OH",
  "description": "The assay mix (200 μl) contained 2 μg of recombinant protein, 100 mM Tris-HCl, pH 7.0, 5 mM UDP-glucose 1.4 mM 2-mercaptoethanol, and 0.5 mM of quercetin. The reaction was carried out at 30° C. for 1 h, and was quick-frozen and stored at −20° C. prior to the reverse-phase HPLC analysis\nReverse-phase HPLC (SpectraSYSTEM HPLC systems and UV6000LP Photodiode Array Detector, ThermoQuest) analysis was carried using a Columbus 5μ C18 column (250×4.60 mm, PHENOMENEX). Quercetin glucosides were separated from the aglycone by a linear gradient of 10-75% acetonitrile in H2O (all solution contained 0.1% trifluoroacetic acid) at 1 ml/mm over 20 mm and monitored at 370 nm. Cytokinin glucosides were separated from their aglycone by a liner gradient of 10-100% methanol in H2O (for N6-isopentenyladenine (iP), N6-benzyladenine and kinetin) or 10-60% methanol in H2O (for trans-zeatin and dihydrozeatin) at 1 ml/min over 20 mm. All solution contained 0.25% acetic acid and 0.04% triethylamine, trifluoroacetic acid. The separation was monitored at 206 nm and 252 nm. The identity of the products was confirmed by comparison with authentic gluco sides.\nThe activity of Arabidopsis recombinant UGTs towards quercetin was determined using the platform developed previously^15.",
  "data": [
    {"molecule": "UGT71C5: Arabidopsis recombinant glycosyltransferase (protein, UniProt Q9FE68 1-480, looked up) UDP-glycosyltransferase 71C5: MKTAELIFVPLPETGHLLSTIEFGKRLLNLDRRISMITILSMNLPYAPHADASLASLTASEPGIRIISLPEIHDPPPIKLLDTSSETYILDFIHKNIPCLRKTIQDLVSSSSSSGGGSSHVAGLILDFFCVGLIDIGREVNLPSYIFMTSNFGFLGVLQYLPERQRLTPSEFDESSGEEELHIPAFVNRVPAKVLPPGVFDKLSYGSLVKIGERLHEAKGILVNSFTQVEPYAAEHFSQGRDYPHVYPVGPVLNLTGRTNPGLASAQYKEMMKWLDEQPDSSVLFLCFGSMGVFPAPQITEIAHALELIGCRFIWAIRTNMAGDGDPQEPLPEGFVDRTMGRGIVCSWAPQVDILAHKATGGFVSHCGWNSVQESLWYGVPIATWPMYAEQQLNAFEMVKELGLAVEIRLDYVADGDRVTLEIVSADEIATAVRSLMDSDNPVRKKVIEKSSVARKAVGDGGSSTVATCNFIKDILGDHF", "values": [
      {"measurement": "Specific activity (nkat/mg protein) 3-O-glc", "result": 0.33, "unit": "nkat/mg protein"},
      {"measurement": "Specific activity (nkat/mg protein) 3′-O-glc", "result": "— (Activity lower than 0.02 nkat/mg protein has been considered as trace activity and is not shown in the Table.)"},
      {"measurement": "Specific activity (nkat/mg protein) 4′-O-glc", "result": "— (Activity lower than 0.02 nkat/mg protein has been considered as trace activity and is not shown in the Table.)"},
      {"measurement": "Specific activity (nkat/mg protein) 7-O-glc", "result": "— (Activity lower than 0.02 nkat/mg protein has been considered as trace activity and is not shown in the Table.)"}
    ]},
    {"molecule": "UGT78D1: Arabidopsis recombinant glycosyltransferase (protein, UniProt Q9S9P6 1-453, looked up) Flavonol-3-O-rhamnosyltransfer …: MTKFSEPIRDSHVAVLAFFPVGAHAGPLLAVTRRLAAASPSTIFSFFNTARSNASLFSSDHPENIKVHDVSDGVPEGTMLGNPLEMVELFLEAAPRIFRSEIAAAEIEVGKKVTCMLTDAFFWFAADIAAELNATWVAFWAGGANSLCAHLYTDLIRETIGLKDVSMEETLGFIPGMENYRVKDIPEEVVFEDLDSVFPKALYQMSLALPRASAVFISSFEELEPTLNYNLRSKLKRFLNIAPLTLLSSTSEKEMRDPHGCFAWMGKRSAASVAYISFGTVMEPPPEELVAIAQGLESSKVPFVWSLKEKNMVHLPKGFLDRTREQGIVVPWAPQVELLKHEAMGVNVTHCGWNSVLESVSAGVPMIGRPILADNRLNGRAVEVVWKVGVMMDNGVFTKEGFEKCLNDVFVHDDGKTMKANAKKLKEKLQEDFSMKGSSLENFKILLDEIVKV", "values": [
      {"measurement": "Specific activity (nkat/mg protein) 3-O-glc", "result": 0.24, "unit": "nkat/mg protein"},
      {"measurement": "Specific activity (nkat/mg protein) 3′-O-glc", "result": "— (Activity lower than 0.02 nkat/mg protein has been considered as trace activity and is not shown in the Table.)"},
      {"measurement": "Specific activity (nkat/mg protein) 4′-O-glc", "result": "— (Activity lower than 0.02 nkat/mg protein has been considered as trace activity and is not shown in the Table.)"},
      {"measurement": "Specific activity (nkat/mg protein) 7-O-glc", "result": "— (Activity lower than 0.02 nkat/mg protein has been considered as trace activity and is not shown in the Table.)"}
    ]},
    {"molecule": "UGT78D3: Arabidopsis recombinant glycosyltransferase, FIG. 6 (protein, UniProt Q9LFK0 1-459, looked up) UDP-glycosyltransferase 78D3: MAKPSQPTRDSHVAVLVFPFGTHAAPLLAVTCRLATAAPSTVFSFFSTARSNSSLLSSDIPTNIRVHNVDDGVPEGFVLTGNPQHAVELFLEAAPEIFRREIKAAETEVGRKFKCILTDAFLWLAAETAAAEMKASWVAYYGGGATSLTAHLYTDAIRENVGVKEVGERMEETIGFISGMEKIRVKDTQEGVVFGNLDSVFSKTLHQMGLALPRATAVFINSFEELDPTFTNDFRSEFKRYLNIGPLALLSSPSQTSTLVHDPHGCLAWIEKRSTASVAYIAFGRVATPPPVELVAIAQGLESSKVPFVWSLQEMKMTHLPEGFLDRTREQGMVVPWAPQVELLNHEAMGVFVSHGGWNSVLESVSAGVPMICRPIFGDHAINARSVEAVWEIGVTISSGVFTKDGFEESLDRVLVQDDGKKMKVNAKKLEELAQEAVSTKGSSFENFGGLLDEVVNFG", "values": [
      {"measurement": "Specific activity (nkat/mg protein) 3-O-glc", "result": 0.16, "unit": "nkat/mg protein"},
      {"measurement": "Specific activity (nkat/mg protein) 3′-O-glc", "result": "— (Activity lower than 0.02 nkat/mg protein has been considered as trace activity and is not shown in the Table.)"},
      {"measurement": "Specific activity (nkat/mg protein) 4′-O-glc", "result": "— (Activity lower than 0.02 nkat/mg protein has been considered as trace activity and is not shown in the Table.)"},
      {"measurement": "Specific activity (nkat/mg protein) 7-O-glc", "result": "— (Activity lower than 0.02 nkat/mg protein has been considered as trace activity and is not shown in the Table.)"}
    ]},
    {"molecule": "UGT71B5: Arabidopsis recombinant glycosyltransferase (protein, UniProt O23382 1-478, looked up) UDP-glycosyltransferase 71B5: MKIELVFIPLPGIGHLRPTVKLAKQLIGSENRLSITIIIIPSRFDAGDASACIASLTTLSQDDRLHYESISVAKQPPTSDPDPVPAQVYIEKQKTKVRDAVAARIVDPTRKLAGFVVDMFCSSMIDVANEFGVPCYMVYTSNATFLGTMLHVQQMYDQKKYDVSELENSVTELEFPSLTRPYPVKCLPHILTSKEWLPLSLAQARCFRKMKGILVNTVAELEPHALKMFNINGDDLPQVYPVGPVLHLENGNDDDEKQSEILRWLDEQPSKSVVFLCFGSLGGFTEEQTRETAVALDRSGQRFLWCLRHASPNIKTDRPRDYTNLEEVLPEGFLERTLDRGKVIGWAPQVAVLEKPAIGGFVTHCGWNSILESLWFGVPMVTWPLYAEQKVNAFEMVEELGLAVEIRKYLKGDLFAGEMETVTAEDIERAIRRVMEQDSDVRNNVKEMAEKCHFALMDGGSSKAALEKFIQDVIENMD", "values": [
      {"measurement": "Specific activity (nkat/mg protein) 3-O-glc", "result": 0.26, "unit": "nkat/mg protein"},
      {"measurement": "Specific activity (nkat/mg protein) 3′-O-glc", "result": "— (Activity lower than 0.02 nkat/mg protein has been considered as trace activity and is not shown in the Table.)"},
      {"measurement": "Specific activity (nkat/mg protein) 4′-O-glc", "result": "— (Activity lower than 0.02 nkat/mg protein has been considered as trace activity and is not shown in the Table.)"},
      {"measurement": "Specific activity (nkat/mg protein) 7-O-glc", "result": "— (Activity lower than 0.02 nkat/mg protein has been considered as trace activity and is not shown in the Table.)"}
    ]},
    {"molecule": "UGT72B3: Arabidopsis recombinant glycosyltransferase (protein, UniProt Q9LNI1 1-481, looked up) UDP-glycosyltransferase 72B3: MADGNTPHVAIIPSPGIGHLIPLVELAKRLLDNHGFTVTFIIPGDSPPSKAQRSVLNSLPSSIASVFLPPADLSDVPSTARIETRISLTVTRSNPALRELFGSLSAEKRLPAVLVVDLFGTDAFDVAAEFHVSPYIFYASNANVLTFLLHLPKLDETVSCEFRELTEPVIIPGCVPITGKDFVDPCQDRKDESYKWLLHNVKRFKEAEGILVNSFVDLEPNTIKIVQEPAPDKPPVYLIGPLVNSGSHDADVNDEYKCLNWLDNQPFGSVLYVSFGSGGTLTFEQFIELALGLAESGKRFLWVIRSPSGIASSSYFNPQSRNDPFSFLPQGFLDRTKEKGLVVGSWAPQAQILTHTSIGGFLTHCGWNSSLESIVNGVPLIAWPLYAEQKMNALLLVDVGAALRARLGEDGVVGREEVARVVKGLIEGEEGNAVRKKMKELKEGSVRVLRDDGFSTKSLNEVSLKWKAHQRKIDQEQESFL", "values": [
      {"measurement": "Specific activity (nkat/mg protein) 3-O-glc", "result": 0.20, "unit": "nkat/mg protein"},
      {"measurement": "Specific activity (nkat/mg protein) 3′-O-glc", "result": "— (Activity lower than 0.02 nkat/mg protein has been considered as trace activity and is not shown in the Table.)"},
      {"measurement": "Specific activity (nkat/mg protein) 4′-O-glc", "result": "— (Activity lower than 0.02 nkat/mg protein has been considered as trace activity and is not shown in the Table.)"},
      {"measurement": "Specific activity (nkat/mg protein) 7-O-glc", "result": "— (Activity lower than 0.02 nkat/mg protein has been considered as trace activity and is not shown in the Table.)"}
    ]},
    {"molecule": "UGT73B2: Arabidopsis recombinant glycosyltransferase (protein, UniProt Q94C57 1-483, looked up) UDP-glucosyl transferase 73B2: MGSDHHHRKLHVMFFPFMAYGHMIPTLDMAKLFSSRGAKSTILTTSLNSKILQKPIDTFKNLNPGLEIDIQIFNFPCVELGLPEGCENVDFFTSNNNDDKNEMIVKFFFSTRFFKDQLEKLLGTTRPDCLIADMFFPWATEAAGKFNVPRLVFHGTGYFSLCAGYCIGVHKPQKRVASSSEPFVIPELPGNIVITEEQIIDGDGESDMGKFMTEVRESEVKSSGVVLNSFYELEHDYADFYKSCVQKRAWHIGPLSVYNRGFEEKAERGKKANIDEAECLKWLDSKKPNSVIYVSFGSVAFFKNEQLFEIAAGLEASGTSFIWVVRKTKDDREEWLPEGFEERVKGKGMIIRGWAPQVLILDHQATGGFVTHCGWNSLLEGVAAGLPMVTWPVGAEQFYNEKLVTQVLRTGVSVGASKHMKVMMGDFISREKVDKAVREVLAGEAAEERRRRAKKLAAMAKAAVEEGGSSFNDLNSFMEEFSS", "values": [
      {"measurement": "Specific activity (nkat/mg protein) 3-O-glc", "result": 0.92, "unit": "nkat/mg protein"},
      {"measurement": "Specific activity (nkat/mg protein) 3′-O-glc", "result": "— (Activity lower than 0.02 nkat/mg protein has been considered as trace activity and is not shown in the Table.)"},
      {"measurement": "Specific activity (nkat/mg protein) 4′-O-glc", "result": "— (Activity lower than 0.02 nkat/mg protein has been considered as trace activity and is not shown in the Table.)"},
      {"measurement": "Specific activity (nkat/mg protein) 7-O-glc", "result": "— (Activity lower than 0.02 nkat/mg protein has been considered as trace activity and is not shown in the Table.)"}
    ]}
  ]
}
